Measured values from patent US20030200558A1 (MONSANTO, published 2003).

B1: β-conglycinin β subunit mutant 39335-10 (other)
chain: MDYKDDDDKLKVREDENNPFYLRSSNSFQTLFENQNGRIRLIQRFNKRSPQLENLRDYIIVQFQSKPNTILLPHHADADFIIIILSGRAILTLVNNDDRDSYNLHPGIAQRIPAGTTYYIINPHDHQNLKIIKIAIPVNKPGRYDDFFLSSTQAQQSYLQGFSHNILETSFHSEFEEINRVLLGEEEEQRQQEGVIVELSKEQIRQLSRRAKSSSRKTISSEDEPFNLRSRNPIYSNNFGKIFEITPEKTPQLRDLDIFLSSVDINEGALLLPHFNSKAIVILVINEGDANIEIVGIKEQQQKQKQEEEPLEVQRYRAELSEDDVFVIPAAYPFVVNATSNLNFLAFGINAENNQRNFLAGEKDNVVRQIERQVQELAFPGSAQDVERLLKKQRESYIVDAQPQQKEEGSKGRKGPFPSILGALY
B2: β-conglycinin β subunit mutant 39335-25 (other)
chain: MDYKDDDDKLKVREDENNPFYLRSSNSFQTLFENQNGRIRLIQRFNKRSPQLENLRDYRIVQFQSKPNTIILPHHADADFIIIILSGRAIITLVNNDDRDSYNIHPGDAIRIPAGTTYYIINPHDHQNLKIIKIAIPVNKPGRYDDFFLSSTQAQQSYLQGFSHNILETSFHSEFEEINRVLLGEEEEQRQQEGVIVELSKEQIRQLSRRAKSSSRKTISSEDEPFNLRSRNPIYSNNFGKIFEITPEKTPQLRDLDIFISSVDINEGALILPHFNSKAIVILVINEGDANIEIVGIKEQQQKQKQEEEPLEVQRYRAELSEDDVFVIPAAYPFVVNATSNLNFLAFGINAENNQRNFLAGEKDNVVRQIERQVQELAFPGSAQDVERLLKKQRESYFVDAQPQQKEEGSKGRKGPFPSILGALY
B3: β-conglycinin β subunit mutant 39335-13 (other)
chain: MDYKDDDDKLKVREDENNPFYLRSSNSFQTLFENQNGRIRLIQRFNKRSPQLENLRDYRIVQFQSKPNTIILPHHADADFIIIILSGRAILTLVNNDDRDSYNIHPGDAQRIPAGTTYYLVNPHDHQNLKIIKIAIPVNKPGRYDDFFLSSTQAQQSYLQGFSHNILETSFHSEFEEINRVLLGEEEEQRQQEGVIVELSKEQIRQLSRRAKSSSRKTISSEDEPFNLRSRNPIYSNNFGKIFEITPEKTPQLRDLDIFLSSVDINEGALLLPHFNSKAIVILVINEGDANIELVGIKEQQQKQKQEEEPLEVQRYRAELSEDDVFVIPAAYPFVVNATSNLNFLAFGINAENNQRNFLAGEKDNVVRQIERQVQELAFPGSAQDVERLLKKQRESYFVDAQPQQKEEGSKGRKGPFPSILGALY
B4: β-conglycinin β subunit mutant 39335-20 (other)
chain: MDYKDDDDKLKVREDENNPFYLRSSNSFQTLFENQNGRIRLIQRFNKRSPQLENLRDYRIVQIQSKPNTIILPHHADADFIIIILSGRAIITLVNNDDRDSYNIHPGDAIRIPAGTTYYIINPHDHQNLKIIKIAIPVNKPGRYDDFFLSSTQAQQSYLQGFSHNILETSFHSEFEEINRVLLGEEEEQRQQEGVIVELSKEQIRQLSRRAKSSSRKTISSEDEPFNLRSRNPIYSNNFGKIFEITPEKTPQLRDLDIFISSVDINEGALILPHFNSKAIVILVINEGDANIEIVGIKEQQQKQKQEEEPLEVQRYRAELSEDDVFVIPAAYPFVVNATSNLNFLAFGINAENNQRNFLAGEKDNVVRQIERQVQELAFPGSAQDVERLLKKQRESYFVDAQPQQKEEGSKGRKGPFPSILGALY
B5: β-conglycinin β subunit mutant 39335-12 (other)
chain: MDYKDDDDKLKVREDENNPFYLRSSNSFQTLFENQNGRIRLIQRFNKRSPQLENLRDYIIVQFQSKPNTIILPHHADADFIIIILSGRAILTLVNNDDRDSYNLHPGDAQRIPAGTTYYIINPHDHQNLKIIKIAIPVNKPGRYDDFFLSSTQAQQSYLQGFSHNILETSFHSEFEEINRVLLGEEEEQRQQEGVIVELSKEQIRQLSRRAKSSSRKTISSEDEPFNLRSRNPIYSNNFGKIFEITPEKTPQLRDLDIFLSSVDINEGALLLPHFNSKAIVILVINEGDANIEIVGIKEQQQKQKQEEEPLEVQRYRAELSEDDVFVIPAAYPFVVNATSNLNFLAFGINAENNQRNFLAGEKDNVVRQIERQVQELAFPGSAQDVERLLKKQRESYIVDAQPQQKEEGSKGRKGPFPSILGALY
B6: β-conglycinin β subunit mutant 39335-21 (other)
chain: MDYKDDDDKLKVREDENNPFYLRSSNSFQTLFENQNGRIRLIQRFNKRSPQLENLRDYRIVQIQSKPNTIILPHHADADFIIIILSGRAILTLVNNDDRDSYNIHPGDAQRIPAGTTYYIINPHDHQNLKIIKIAIPVNKPGRYDDFFLSSTQAQQSYLQGFSHNILETSFHSEFEEINRVLLGEEEEQRQQEGVIVELSKEQIRQLSRRAKSSSRKTISSEDEPFNLRSRNPIYSNNFGKFFEITPEKTPQLRDLDIFLSSVDINEGALILPHFNSKAIVILVINEGDANIEIVGIKEQQQKQKQEEEPLEVQRYRAELSEDDVFVIPAAYPFVINATSNLNFLAFGINAENNQRNFLAGEKDNVVRQIERQVQELAFPGSAQDVERLLKKQRESYFVDAQPQQKEEGSKGRKGPFPSILGALY
B7: β-conglycinin β subunit mutant 39335-17 (other)
chain: MDYKDDDDKLKVREDENNPFYLRSSNSFQTLFENQNGRIRLIQRFNKRSPQLENLRDYRIVQIQSKPNTIILPHHADADFIIIILSGRAILTLVNNDDRDSYNIHPGDAIRIPAGTTYYIINPHDHQNLKIIKIAIPVNKPGRYDDFFLSSTQAQQSYLQGFSHNILETSFHSEFEEINRVLLGEEEEQRQQEGVIVELSKEQIRQLSRRAKSSSRKTISSEDEPFNLRSRNPIYSNNFGKIFEITPEKTPQLRDLDIFISSVDINEGALILPHFNSKAIVILVINEGDANIEIVGIKEQQQKQKQEEEPLEVQRYRAELSEDDIIVIPAAYPFVVNATSNLNIIAIGINAENNQRNFLAGEKDNVVRQIERQVQELAFPGSAQDVERLLKKQRESYFVDAQPQQKEEGSKGRKGPFPSILGALY
B8: β-conglycinin β subunit mutant 39335-22 (other)
chain: MDYKDDDDKLKVREDENNPFYLRSSNSFQTLFENQNGRIRLIQRFNKRSPQLENLRDYRIVQIQSKPNTIILPHHADADFIIIILSGRAIITIVNNDDRDSYNIHPGDAIRIPAGTTYYIINPHDHQNLKIIKIAIPVNKPGRYDDFFLSSTQAQQSYLQGFSHNILETSFHSEFEEINRVLLGEEEEQRQQEGVIVELSKEQIRQLSRRAKSSSRKTISSEDEPFNLRSRNPIYSNNFGKIFEITPEKTPQLRDLDIFISSVDINEGALILPHFNSKAIVILVINEGDANIEIVGIKEQQQKQKQEEEPLEVQRYRAELSEDDIIVIPAAYPFVINATSNLNFLAFGINAENNQRNFLAGEKDNVVRQIERQVQELAFPGSAQDVERLLKKQRESYFVDAQPQQKEEGSKGRKGPFPSILGALY
B9: β-conglycinin β subunit mutant 39335-19 (other)
chain: MDYKDDDDKLKVREDENNPFYLRSSNSFQTLFENQNGRIRLIQRFNKRSPQLENLRDYRIVQIQSKPNTIILPHHADADFIIIILSGRAIITLVNNDDRDSYNIHPGDAIRIPAGTTYYIINPHDHQNLKIIKIAIPVNKPGRYDDFFLSSTQAQQSYLQGFSHNILETSFHSEFEEINRVLLGEEEEQRQQEGVIVELSKEQIRQLSRRAKSSSRKTISSEDEPFNLRSRNPIYSNNFGKIFEITPEKTPQLRDLDIFISSVDINEGALILPHFNSKAIVILVINEGDANIEIVGIKEQQQKQKQEEEPLEVQRYRAELSEDDIIVIPAAYPFVVNATSNLNIIAIGINAENNQRNFLAGEKDNVVRQIERQVQELAFPGSAQDVERLLKKQRESYFVDAQPQQKEEGSKGRKGPFPSILGALY

Target: the molecule itself
Assay: sucrose gradient sedimentation, anti-FLAG western (self-assembly)

Binding result, no binding:
B1
B2
B3
B4
B5
B6
B7
B8
B9
